Protease stability score data for 34 sequences are collected here from the NTF2 design screens of Basanta et al. (2020).

The nature of this series: protease stability score; higher = more stable; yeast display proteolysis, trypsin and chymotrypsin.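 Also: log10 excess protease needed over predicted unfolded state with 0 meaning unfolded.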
Sequence “DEDDQLRKLLEEIVDALDRGNESELRNLMDKDVRVDVGDKTITGRENAAEFLIRLANEADEIDINITDLKVDNGNISLRFQLHLHHNGRNVTRQVTIVIDRKGDELKVKYIRMS” showed a protease stability score of 0.031.

The sequence “DEKETKKVLEQAAKLFVNGDVHRVMQLGADDVEVEYGDERYHGKDAAKRVIEKHQKLGIKVEYDELHVEGDRVKAKVRADQAGTTAHFTFEYKATGQRVDKMRVKYDETAQKMIKHG” came in with a protease stability score of -0.23.

“DQEKLQSYVKQYETNDESKLKKNMDENARVDIGDRRITGMEKAADILRHFMEQADHVKLDRMEVQGNHATVDVTAVVNGQKLDYKFVIHVHNGKVKRVEWRVTSEENQKTYDKIVG” had a protease stability score of 0.537.

In turn, “DEEVEEQVKELKRILETGDEDRMQENADPNVRAVYGNKEIHGRDQLREEIRSLKDEMRYEVEIKDYRIRPNEADVRATWHMRVNGQPMRQEVKVKIKFHNGKLKVFVLDFDEEHEKRSRK” displayed a protease stability score of -0.054.

Take “DEEKDEKIRKWQTNVKHGNEDEIRKNADKDAHVHVGDKQYHGHHRIRKLMTNERRKMRVDQKIETVSANNGRATVIVSATFDVNGQPLTDRENVVLIMHNGKIQEVRVDMDPDLHRQLQS”: the protease stability score is -0.51.

“DEEQLQREANEYNKLRRHGDPDRIVELADPNARAHVGDKRVHGREDMKRMVEEERKHADHITFTDFRVDGDKLEILFVITHNGQSDTRIMTIQWDNGKIKRLEVKNN” returned a protease stability score of 0.381.

For “DTHAVEVWRRVLRAKETGDEKTLEKNFDPNARFQVGDKTLHGMEQQVTENKRERDDLRVHVEIKEVKDQGDKAFVDMVMTAEVNGQPYRIRVEVVAVVRNGKIKELVINMDPRQQEQLDS”, the protease stability score was 0.28.

“DHEEVRQYEDAVEAEETGDKEKLQRYMDPNVKFHVGDKTLHGREDVARKQKEDRERIRIRYKSMDIKVRGDKVDFKMSFVVNHNGRPQRETRTFTIDLHNGTFKHADWKESG” displayed a protease stability score of -0.014.

Consider “DREERARQLLRELLKALETGDEDTAANQADPNVRVSVGDRTYHGREQYRTFLRKVAERVDHLEVRVDRVTQDNGQIHMDMTVRHEKNGRTHRKEFVIQIDVQGDKNRFVQMRHK”, for which the protease stability score was -0.163.

As to “DEDEKTKLAEQAKDILQEGNFHEMMHLADENAKVVYGDRRYDGREKVHKVLRDFDDRVDKIDVKRVRVENGRAKIVADVEHDGQRTTVIIHIQAHNGKIRRIRFHTP”, the protease stability score amounted to 0.586.

The sequence “DEKDNKTLHKIIRHGDWKKLQDLADENASVDIGNKKFHGRREVSKAMERLREKVDSVQYHSITVEGNSARIVYNLEVNGNRVKVQMKFSMHNGHLQEVVIRATNEEDSKKIDKQLG” gave a protease stability score of 0.724.

Regarding “DNDAREAARRLLDAWRTGDEDTVRDMADENAKVTVGDKTIQGRDHLVDWIHQHYHEQRVDVKSVHMDAQGDKVDVKLDAVSDRNGQPRRYVEHVKITMKNGKMKSLEMHREG”, the protease stability score was determined as 0.753.

“DQEREMQEWYEKLVRNYENNDRDRLNELLDPNAQFNVGDQTFHGRENAKKWLKTMVDKVDSVEFDLRRLHVHGNKVVFHANVRYRVNGTDTTVDVVIVARVDNGRLRVEKVEYG” displayed a protease stability score of 1.28.

The sequence “DDHDRQKLSEWYKNYESGDPDKLVDMADPNARFQYGDKHVRGREQIHRQWRKELTEQRFTVVKMSASDHNGVIDMKFTNEVEHNGRPDRRKFSFTFRVRNGQAQEFDLQTTK” displayed a protease stability score of 0.014.

In the case of “DEEEDQRVAVDALKVIWRGDSDEAQKLFDPNARFRVGDTVYHGRENVKTALRRFRERADHIRVDHIETQGEHAVAKATVHSNGRTRRLRVHATVHNGRAKEAEVRDS”, the protease stability score worked out at 0.012.

The sequence “DEEEVERVAKTAMEAMKKGNEEELKKLLKEGVEYIMGDNKVHGPEEIQKMVQLVLRVGMRIEFKELRVEGDTATTNVDYQVGDKKVTVQAHAELKGGRIDRVQIDFSDEAKKHVKHG” yielded a protease stability score of 1.17.

Consider “DEERVNDIAHKIAQNLRTNDEEQLVRMMDENAKVTVGEHRIDGREQIRTMWHKIKQHVDHVEVKHVEARGDRIRIIIVLNHNGRQRTIVMYVSIHNGHIKVLKIESQ”, for which the protease stability score was found to be 1.51.

In turn, “EDENMETMKDLLRAWQEGDEDRAQENADKDVTVEYGDRSFHGRSQLHRLVKERREKMRVQIKDVRFDISGDKIKIDLTYTKDHNGRPETRRVRIIARVNNGKVKFVRLDEHG” displayed a protease stability score of 0.652.

Regarding “DEETKAREFIKKVQNVMRTNNPEDFVKQFDPNARMVVGDKSYHGRDDVRKWAQDLFRRADHVSMSVKRLSVHNGRFHMQADLEVHVNGHREEVKVVMNAKDENGQILIKHARFE”, the protease stability score came to 1.77.

For “DKEHLKRMVETIIKILETGDPDKMKNLADENVRVEVGDKDVHGKDTLRKHIEEWRRQIDHLEVKSVRVKGNKASIHFVVRVNGTDKTVVVVFDIHNGKIKMVHYTDS”, the protease stability score is 0.637.

“DEEIQKLIDDALKAYERGNEDQQAELFDENARVRIGDQTLHGREDLKEHLKRVKDHINFRIESYDVKVHNGRMHATLTLVMQIDGQPDQWSVHLRADVNNGRIKHFEMDMDPEKQRELTK”: the protease stability score is -0.044.

For the sequence “DDEEQKERAEEIIKAIQTGDPQQFNRQADPNVEVKIGDTNVHGRENAARNIAERVQRADHIQVETMDVDGNNVVIDMVIQHNGRTKRFIVTLHFQNGRVKKMSIEDS”, the protease stability score stood at 0.459.

“DEEDLQRVAEEVARALDTGNPDKFNSLLDKDAKVNYGDKEYTGREELKKLQERIKEHVDHVHVKRVKVEGEKIHLDIEFEVNGRRFRDTIEARVHNGELQKVHVDPNFVRELKQ”: the protease stability score stood at 0.842.

Consider “EEERQKKAEQWVHAYRHNNEDEIRQLADPNVRFNVGDTRITGRENVMKTLDDQMRHQRVRFHDIQIRVKGDKINITIDAEYESNGRPSRRTLSLEMHLHNGKISHARIDIQG”, for which the protease stability score is -0.128.

“DEDDRKRVAKEFMDNLNTGNEDEALKLADKDARLRYGDKTLHGREQIKDWLHTLRERIDSIEVHRIEVQGDKVRVRASVVINGKEEMVDINFRMSNGRLEKVTFDPRLDEMLKG”: the protease stability score came to 1.44.

In turn, “DEEDNKTAKKLAKTGDPDEFAEQADEDVHIVVGDFEVHGRDELRKLMKRLKDHIDHKEIKRLRVHNGHVDLKFKAVFNGQEMEVSVILTARNGKIKRLEFRVRDDHAHELLEHLLK” displayed a protease stability score of 1.03.

“DDSKAEKFARDYVKNLHRGNQDQLARMVDPNVHFEYGDKQVHGREDYKQFNRRLRERVDHIQLKDFRIQGEKIRIEANFNVNGVNADIVFNFQIENGRVTRANMHFRSEDQEKQFHQ” had a protease stability score of 0.161.

Turning to “DEDKQLHELFERLVEAIRNGDPKKYQDNADENAKIRVGDKEYTGREQLEKLVEDIRKDVDHLEVDFKRVKVEGDKATAIVKVRANFNGKNDDTMYQYQAKIHGDKIHVVNVQQS”, the protease stability score amounted to 0.165.

With “DEEEQKNRAKNAADAFQTGDPDQMVEMVDKDVRVQVGDKRYHGREVARTVLDEMQQHIDHIHVKNYNVSGNTVEIRIKANINGRDVEINIHIEMHNGRVKEVKFNPKVADAAKR”, the protease stability score came out at 0.25.

In the case of “DQKDAKRATEILKNLQEGDWSEVVRQADPNAEIKVGDKVYNGMEHYAEHMHRKVEHSRIRIEVETVKDHNGVIHIKFHIEYKVNGHPRSNTQNINFYLNNGKVRSIDVQVPEEDLEKEHK”, the protease stability score was determined as 0.252.

“DSREAKRAETFFRLVQRGDSRKLQEYMDPNARINIGEKRIHGRENYAKEVKDRREHIRVDIKSLEASDTNGRIHVEVHFEHSHNGRPDQQTMELRITMHNGRAQEITQHETK” registered a protease stability score of -0.223.

Sequence “DERELSLFHRWLEVLNDGNEENLKQNMDPNAHANIGEKEIHGMEDFARHMITKVKELRIKIDDIKSSAHNGRLTASIDQQDNDNGKPDKYTNTFRAKFSNGQIQSQKVERDG” registered a protease stability score of -0.31.

“DEHDTEVAERALNDLKTGDPDKVTEMADKHVKYVVGEKRIQGRETYAKTVEKERDEIRVDWSVHNIQVHNGKLDVSAEFRFTVNGQPNSDSARWEFTLRNGKIQEVVMKVSDRFLKQMRS” showed a protease stability score of -0.15.

For the sequence “DEKLEKLVDEFIEAEHTNNPEELKKLIDPNARFRIGDKDVHGREEWNEDMKRINDELRIEVHIKHVDARGDHVDIEMEFTFNVNGRPVNQTAKQQIKFENGRMKRVVNNVSEDQVEQLHR”, the protease stability score was 0.194.
